# According to article PMC12623983:
# Substitutions are numbered along the chain they refer to. Names may count otherwise.
# B1: human NMT2 (N-myristoyltransferase 2), wild type, O60551 R306E; R324E; K327E (protein)
# chain: MAEDSESAASQQSLELDDQDTCGIDGDNEEETEHAKGSPGGYLGAKKKKKKQKRKKEKPNSGGTKSDSASDSQEIKIQQPSKNPSVPMQKLQDIQRAMELLSACQGPARNIDEAAKHRYQFWDTQPVPKLDEVITSHGAIEPDKDNVRQEPYSLPQGFMWDTLDLSDAEVLKELYTLLNENYVEDDDNMFRFDYSPEFLLWALRPPGWLLQWHCGVRVSSNKKLVGFISAIPANIRIYDSVKKMVEINFLCVHKKLRSKRVAPVLIREITRRVNLEGIFQAVYTAGVVLPKPIATCRYWHRSLNPEKLVEVKFSHLSRNMTLQETMELYRLPDVTKTSGLRPMEPKDIKSVRELINTYLKQFHLAPVMDEEEVAHWFLPREHIIDTFVVESPNGKLTDFLSFYTLPSTVMHHPAHKSLKAAYSFYNIHTETPLLDLMSDALILAKSKGFDVFNALDLMENKTFLEKLKFGIGDGNLQYYLYNWRCPGTDSEKVGLVLQ
# B2: human NMT2 (N-myristoyltransferase 2), wild type, O60551 R306E (protein)
# chain: B1 chain with E324R, E327K
# B3: human NMT2 (N-myristoyltransferase 2), wild type, O60551 R324E; K327E (protein)
# chain: B1 chain with E306R
# Target: ribosomes from HEK293 cells (80S ribosomes, empty ribosomes), P62750;P62906
# Assay: co-sedimentation assay with immunoblot quantification
# Details: chain shown with the change, three independent replicates, read off a plot; for ratio to parent: NMT2 alone with ribosomes (no NAC), parent: est. 1.0; for response (normalized intensity): NMT2 with ribosomes in the presence of NAC, parent: est. 2.2
Binder,ratio to parent,response (normalized intensity)
B1,0.27,0.3
B2,0.35,0.85
B3,0.32,0.45
